Assays:
[1] = target: progesterone receptor isoform A (PR-A), full-length, Strep II-tagged (human) (UniProt P06401); test: SEC-MALS
[2] = target: steroid receptor coactivator 3 (SRC3), full-length, Strep II-tagged (human) (UniProt Q9Y6Q9); test: SEC-MALS
steroid receptor coactivator 3 (SRC3), full-length, Strep II-tagged (human), sequence (Q9Y6Q9 whole entry): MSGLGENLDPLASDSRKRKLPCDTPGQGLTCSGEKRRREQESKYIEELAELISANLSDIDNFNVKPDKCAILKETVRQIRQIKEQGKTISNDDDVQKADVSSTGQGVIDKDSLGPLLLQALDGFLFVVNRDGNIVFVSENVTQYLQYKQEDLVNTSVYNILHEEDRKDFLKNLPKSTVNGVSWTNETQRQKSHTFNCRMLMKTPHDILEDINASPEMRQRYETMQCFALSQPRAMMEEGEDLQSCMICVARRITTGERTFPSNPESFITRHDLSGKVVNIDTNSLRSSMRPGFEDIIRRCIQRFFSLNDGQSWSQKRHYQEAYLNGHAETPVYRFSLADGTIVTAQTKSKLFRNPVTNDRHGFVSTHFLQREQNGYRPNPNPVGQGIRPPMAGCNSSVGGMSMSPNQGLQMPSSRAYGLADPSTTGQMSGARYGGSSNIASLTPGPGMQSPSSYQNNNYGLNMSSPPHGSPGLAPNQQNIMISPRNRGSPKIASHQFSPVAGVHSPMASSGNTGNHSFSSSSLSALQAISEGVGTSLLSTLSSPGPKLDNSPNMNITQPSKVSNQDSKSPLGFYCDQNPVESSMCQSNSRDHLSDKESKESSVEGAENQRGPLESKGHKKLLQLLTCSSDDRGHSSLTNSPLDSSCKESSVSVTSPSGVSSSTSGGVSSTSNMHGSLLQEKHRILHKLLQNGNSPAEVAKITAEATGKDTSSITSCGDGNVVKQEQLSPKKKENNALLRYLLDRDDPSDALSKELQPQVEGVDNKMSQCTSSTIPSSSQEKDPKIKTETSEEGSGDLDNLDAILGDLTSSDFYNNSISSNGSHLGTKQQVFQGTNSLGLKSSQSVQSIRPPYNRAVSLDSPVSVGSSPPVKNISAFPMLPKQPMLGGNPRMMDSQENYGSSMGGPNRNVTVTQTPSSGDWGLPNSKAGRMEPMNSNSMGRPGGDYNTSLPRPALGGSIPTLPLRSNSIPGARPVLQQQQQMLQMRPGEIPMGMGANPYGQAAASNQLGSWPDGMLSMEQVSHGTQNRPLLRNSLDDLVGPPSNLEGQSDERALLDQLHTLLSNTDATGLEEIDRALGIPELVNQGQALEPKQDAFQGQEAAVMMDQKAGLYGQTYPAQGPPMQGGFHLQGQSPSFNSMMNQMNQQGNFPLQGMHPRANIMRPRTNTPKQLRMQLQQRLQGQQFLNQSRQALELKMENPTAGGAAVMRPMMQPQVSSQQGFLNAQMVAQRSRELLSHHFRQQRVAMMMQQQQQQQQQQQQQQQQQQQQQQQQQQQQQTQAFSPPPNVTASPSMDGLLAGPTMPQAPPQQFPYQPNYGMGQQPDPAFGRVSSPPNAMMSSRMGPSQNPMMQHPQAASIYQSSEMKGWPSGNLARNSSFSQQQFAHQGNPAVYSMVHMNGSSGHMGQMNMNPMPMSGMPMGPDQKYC

progesterone receptor isoform A (PR-A), full-length, Strep II-tagged (human), sequence (P06401 165-933): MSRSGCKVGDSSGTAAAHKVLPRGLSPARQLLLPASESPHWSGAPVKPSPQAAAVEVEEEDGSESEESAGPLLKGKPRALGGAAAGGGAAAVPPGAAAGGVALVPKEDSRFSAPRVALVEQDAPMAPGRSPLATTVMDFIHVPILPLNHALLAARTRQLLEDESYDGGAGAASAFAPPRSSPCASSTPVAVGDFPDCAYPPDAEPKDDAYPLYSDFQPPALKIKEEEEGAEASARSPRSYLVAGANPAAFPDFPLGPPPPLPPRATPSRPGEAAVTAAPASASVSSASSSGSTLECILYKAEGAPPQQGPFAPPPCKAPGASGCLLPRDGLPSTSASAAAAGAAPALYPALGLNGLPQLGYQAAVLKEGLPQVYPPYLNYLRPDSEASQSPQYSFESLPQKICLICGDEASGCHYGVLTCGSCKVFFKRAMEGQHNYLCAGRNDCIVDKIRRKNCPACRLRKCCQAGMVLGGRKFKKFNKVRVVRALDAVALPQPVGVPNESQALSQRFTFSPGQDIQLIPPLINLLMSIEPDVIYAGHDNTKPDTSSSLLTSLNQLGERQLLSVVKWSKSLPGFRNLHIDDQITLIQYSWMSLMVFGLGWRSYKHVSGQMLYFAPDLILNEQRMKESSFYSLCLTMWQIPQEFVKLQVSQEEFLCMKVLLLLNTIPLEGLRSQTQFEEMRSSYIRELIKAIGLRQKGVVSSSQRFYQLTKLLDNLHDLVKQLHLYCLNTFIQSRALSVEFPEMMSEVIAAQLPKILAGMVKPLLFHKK

histone acetyltransferase p300, full-length, Strep II-tagged, Q09472 1-2414
stoichiometry N [1]: 0.5 p300 per PR | stoichiometry N (p300 per SRC3) [2]: 1
